{
  "source": "patent US7803910B2",
  "about": "“Soluble CD164 polypeptides” (Merck Serono S.A., priority 2005, dated 2010)",
  "molecules": {"B1": {"name": "sCD164: SEQ ID NO: 15, mature full-length CD164 extracellular domain (exons 1 to 6), expressed with C-terminal hexa-histidine tag (protein)", "chain": "DKNTTQHPNVTTLAPISNVTSAPVTSLPLVTTPAPETCEGRNSCVSCFNVSVVNTTCFWIECKDESYCSHNSTVSDCQVGNTTDFCSVSTATPVPTANSTAKPTVQPSPSTTSKTVTTSGTTNNTVTPTSQPVRKSTFDA", "modifications": "homo sapiens"}, "B2": {"name": "sCD164-Fcm: SEQ ID NO: 18, sCD164 fused to an Fc part mutated in the Fc receptor and C1q binding regions (protein, listed as Homo sapiens)", "chain": "DKNTTQHPNVTTLAPISNVTSAPVTSLPLVTTPAPETCEGRNSCVSCFNVSVVNTTCFWIECKDESYCSHNSTVSDCQVGNTTDFCSVSTATPVPTANSTAKPTVQPSPSTTSKTVTTSGTTNNTVTPTSQPVRKSTFDAEPKSCDKTHTCPPCPAPEAEGAPSVFLFPPKPKDTLMISRTPEVTCVVVDVSHEDPEVKFNWYVDGVEVHNAKTKPREEQYNSTYRVVSVLTVLHQDWLNGKEYKCKVSNKALPSSIEKTISKAKGQPREPQVYTLPPSREEMTKNQVSLTCLVKGFYPSDIAVEWESNGQPENNYKTTPPVLDSDGSFFLYSKLTVDKSRWQQGNVFSCSVMHEALHNHYTQKSLSLSPGK"}},
  "key": {"LPS-induced TNFα release": {"tested_on": "LPS-induced TNFα release", "assay": "LPS-induced TNFalpha release in mice (Example 5)", "type": "in vivo, C3H mice", "protocol": "C3H mice (Elevage Janvier) (8 week old), received E. Coli's LPS (O111:B4, Sigma, 0.3 mg/kg, ip) 15 minutes after the administration of the test molecules. LPS was solubilized in sterile saline. Dexamethasone (0.1 mg/kg, sc) was used as reference. 24 h later, the animals were sacrificed and the blood was sampled. Plasma levels of TNF-αwere determined in serum using an ELISA kit (R&D). Statistical analysis was determined with an ANOVA test followed by a post-test of Dunnett."}, "female mice (Balb/c)": {"tested_on": "female mice (Balb/c)", "assay": "Dextran Sodium Sulfate-induced ulcerative colitis model", "type": "in vivo", "protocol": "The DSS model of colitis mimics some aspects of the human affection such as macrophage infiltration and up regulation of inflammatory cytokines (i.e. TNFα, IL-1p, IL-6) in the colon mucosa.\nUlcerative colitis (UC) was induced in female mice (Balb/c, 20-22 g, Elevage Janvier) by Dextran Sodium Sulfate (DSS 4%) administered in drinking water (oral route). The mice had free access to DSS during 7 days. Body weight was determined daily. The severity of the UC was assessed by a clinical score estimating the constituency of the stool (0=firm, 1=loose, 2=diarrhea) and the presence of blood (0=no blood, 1=occult blood, 2=gross rectal bleeding). Seven days after the induction of the disease, the animals were sacrificed. The length and the weight of the colon were determined and the ratio Weight/Length/100 g body weight was calculated. The spleen weight was also determined. Blood was sampled to determine serum amyloid protein (SAA) using a specific ELISA.\nTest substances or vehicle (PBS/0.02% BSA) was administered at days 3, 4, 5 and 6 after the induction of the UC. Enbrel® (1 mg/kg, sc) was used as reference compound. Three studies were performed as per the following table:\nIn Study 3, the content of IL-1β in the colon was also measured."}},
  "data": [
    {"molecule": "B1", "values": [
      {"measurement": "LPS-induced TNFα release", "setting": "LPS-induced TNFα release; 1 mg/kg iv, 15 minutes prior to LPS, P<0.001", "value": "significantly decrease"},
      {"measurement": "TNFα release after LPS induction", "setting": "LPS-induced TNFα release; previous experiments in this model", "value": "decrease TNFα release"}
    ]},
    {"molecule": "B2", "values": [
      {"measurement": "clinical score", "setting": "female mice (Balb/c); Study 1, 1 mg/kg, ip, day 6", "value": "−23", "unit": "%"},
      {"measurement": "increase in serum amyloid protein A", "setting": "female mice (Balb/c); Study 1, 3 mg/kg, ip", "value": "−36", "unit": "%"},
      {"measurement": "splenomegaly", "setting": "female mice (Balb/c); Study 1, 3 mg/kg, ip", "value": "−27", "unit": "%"},
      {"measurement": "clinical score", "setting": "female mice (Balb/c); Study 1, 3 mg/kg, ip, day 6", "value": "−32", "unit": "%"},
      {"measurement": "colon reduction, length", "setting": "female mice (Balb/c); Study 1, 3 mg/kg, ip, days 3-6", "value": "−21", "unit": "%"},
      {"measurement": "body weight loss", "setting": "female mice (Balb/c); Study 1, 0.3, 1, 3 mg/kg ip", "value": "not affected"},
      {"measurement": "ratio weight/length (colon)", "setting": "female mice (Balb/c); Study 1, 0.3, 1, 3 mg/kg ip", "value": "not affected"},
      {"measurement": "colon reduction, length", "setting": "female mice (Balb/c); Study 2, 0.3 mg/kg, sc", "value": "−13", "unit": "%"},
      {"measurement": "colon reduction, ratio weight/length", "setting": "female mice (Balb/c); Study 2, 0.3 mg/kg, sc", "value": "−26", "unit": "%"},
      {"measurement": "colon reduction, length", "setting": "female mice (Balb/c); Study 2, 1 mg/kg, sc", "value": "−18", "unit": "%"},
      {"measurement": "colon reduction, ratio weight/length", "setting": "female mice (Balb/c); Study 2, 1 mg/kg, sc", "value": "−46", "unit": "%"},
      {"measurement": "body weight loss", "setting": "female mice (Balb/c); Study 2, 1 mg/kg, sc, day 5 to day 7", "value": "reduced significantly"},
      {"measurement": "clinical score", "setting": "female mice (Balb/c); Study 2, 1 mg/kg, sc, day 6", "value": "−22", "unit": "%"},
      {"measurement": "increase in serum amyloid protein A", "setting": "female mice (Balb/c); Study 2, 3 mg/kg, sc", "value": "significantly decreased"},
      {"measurement": "splenomegaly", "setting": "female mice (Balb/c); Study 2, 0.3, 1, 3 mg/kg sc", "value": "not improved"},
      {"measurement": "colon reduction, length", "setting": "female mice (Balb/c); Study 3, 0.3 mg/kg, sc", "value": "−18", "unit": "%"},
      {"measurement": "colon reduction, ratio weight/length", "setting": "female mice (Balb/c); Study 3, 0.3 mg/kg, sc", "value": "−19", "unit": "%"},
      {"measurement": "body weight loss", "setting": "female mice (Balb/c); Study 3, 1 mg/kg, sc", "value": "did not have any effect"},
      {"measurement": "clinical score", "setting": "female mice (Balb/c); Study 3, 1 mg/kg, sc", "value": "tended to improve"},
      {"measurement": "colon reduction, length", "setting": "female mice (Balb/c); Study 3, 1 mg/kg, sc", "value": "−26", "unit": "%"},
      {"measurement": "colon reduction, ratio weight/length", "setting": "female mice (Balb/c); Study 3, 1 mg/kg, sc", "value": "−25", "unit": "%"},
      {"measurement": "content of IL-1β in colon", "setting": "female mice (Balb/c); Study 3, 1 mg/kg, sc", "value": "tended to improve"},
      {"measurement": "serum amyloid A protein", "setting": "female mice (Balb/c); Study 3, 1 mg/kg, sc", "value": "did not have any effect"},
      {"measurement": "body weight loss", "setting": "female mice (Balb/c); Study 3, 0.3 and 1 mg/kg, sc", "value": "did not have any effect"},
      {"measurement": "clinical score", "setting": "female mice (Balb/c); Study 3, 0.3 and 1 mg/kg, sc", "value": "trended to improve"},
      {"measurement": "serum amyloid A protein", "setting": "female mice (Balb/c); Study 3, 0.3 and 1 mg/kg, sc", "value": "did not have any effect"},
      {"measurement": "splenomegaly", "setting": "female mice (Balb/c); Study 3, 0.3 and 1 mg/kg, sc", "value": "trended to improve"},
      {"measurement": "content of IL-1β in colon", "setting": "female mice (Balb/c); Study 3, 0.3 and 1 mg/kg, sc (dose of the single value not stated)", "value": "−22", "unit": "%"}
    ]}
  ]
}
